Test results reported in the nanobody polyreactivity screen of Harvey et al. (2022).

Assay: yeast display, Sf9 membrane polyspecificity reagent, FACS + sequencing; frameworks hold sequencing errors
In short: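 Polyreactivity labels are assigned by the sorting gate from which each nanobody was recovered. The gates were low and high (top ~1%), set on anti-HA fluorescence for expression and streptavidin fluorescence for reagent binding. Before sorting, galactose-induced (36–48 hours) yeast display cells were stained for 1 hour at 4 °C with 10% biotinylated, detergent-solubilized Sf9 membrane reagent.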

| Sequence | polyreactivity (PSR sort gate) |
| --- | --- |
| QVQLVESGGGLVQAGGSLRLSWAASGSTFPYYAMGWYRQAPGKERELVAAISWSDANTYYADSVKGRFTISRDNAKNTVYLQMNSLKPEDTAVYYCAAEPYDRYGPYTGYGLNYWGQGTQVTVSS | low polyreactivity |
| QVQLVESGGGLVQAGGSLRLSWAASGSTFYPYAMGWYRPAPGKERELVAAISSSSSTNYADSVKGRFTISRDNAKNTVYLQMNSLKPEDTAVYYCAVTRVIESKQIRYDYWGQGTQVTVSS | low polyreactivity |
| QVQLVESGGGLVQAGGSLRLSWDASGYTFSRNAMGWYRQAPGKERELVAGISWSGSRTYYADSVKGRFTISRDNAKNTVYLQMNSLKPEDTAVYYCAVLAYGPRNARGGTAGYDYWGQGTEVTVSS | high polyreactivity |
| QVQLVESGGGLVQAGGSLRLSYAASGSTFHLYAMGWYRQAPGKERELVASINSGGSTYYADSVKGRFTISRDNAKNTVYLQMNSLKPEDTAVYYCAADAYSWWGRWERYPYTTMYYWGQGTQVTVSS | low polyreactivity |
| QVQLVESGGGLVQAGGSLRLTCAASGAIFEYYSMSWYIQAPGKERELVAAISSGGPTYYADSVKGRFTISRDNAKNTVYLQMNSLKPEDTAVYYCNADLWYPDYEYWGQGTQVNVSS | low polyreactivity |
| QVQLVESGGGLVQAGGSLRLTCAASGFIFNRYAMGWYRQAPGKERELDADLTGGSTYYAVSVKGRFTISRDNAKKSVYLQLNSVTPEDTAVDYCAADVLPISTLLFRGPGFDSWGQGTQVTFSS | low polyreactivity |
| QVQLVESGGGLVQAGGSLRLTCAASGFIFPRYAMGWYRQAPGKERELVAAISGNGVRTYYADSVKGRFTISRDNAKNTVYLQMNSLNPEDTAVYYCNTGADVRYRYYYWGQGTQVTVSS | high polyreactivity |
| QVQLVESGGGLVQAGGSLRLTCAASGFIFYKYAMGWYRQAPGKERELVAAISRGGGSTYYADSVKGRFTISRDNAKNTVYLQMNSLKPEETAVYYCAAQAFIVRPSYVPRHNYWGQGTQVTVSS | high polyreactivity |
| QVQLVESGGGLVQAGGSLRLTCAASGFTFFTYTMGWYRQPPGKERELVAAISRDGARTNYADSVKGRFTISRDNAKNTVYLQMNSLKPEDTAVYYCAAPTSHLYTEKYDYWGQGTQVTVSS | high polyreactivity |
| QVQLVESGGGLVQAGGSLRLTCAASGFTFGRYAMGWYRQAPGKERELVAAISTRGGSTYYADSVKGRFTISRDNAKNTVYLQMNSLKPEDTAVYYCAAGGYYVRYDYWGQGTQVTVSS | high polyreactivity |
| QVQLVESGGGLVQAGGSLRLTCAASGFTFSEYAMGWYRQAPGKEMEVVAAISWRGGSTYYADSVKGRFTISRDNAKNTVYLQMNSLKPEDTAVYYCAADSSGVYASWYKMDYWGKGTQVTVSS | high polyreactivity |
| QVQLVESGGGLVQAGGSLRLTCAASGFTFVINDMGWYRQAPGKERELVADITSGGDTYYADSVKGRFTISRDNAKNTVNFQMYSLKPEDTAVYYCAADIYPDWIYLLYGYWGQGTQVTVSS | low polyreactivity |
| QVQLVESGGGLVQAGGSLRLTCAASGFTIGYYAMGWYRQAPGKERELVAAISWSGGRTYYADSVKGRFTISRDNAKNTVYLQMNSLKPEDTAVYDCAADGQQTYSGYDYWGQGTQVTVSS | high polyreactivity |
| QVQLVESGGGLVQAGGSLRLTCAASGFTLGLNAMGWYRQAPGKEREVVAAIRRSAGSTYYADSVKGRFTISRDNAKNTVYLQMNSLKPEDTAVYYCAAGFLWAKYAYGHWGQGTQVTVSS | low polyreactivity |
| QVQLVESGGGLVQAGGSLRLTCAASGGIFVFYAMGWYRQAPGKERELVAAIRYGGSSTYYADSVKGRFTISRDNAKNTVYLQMNSLKPEDTAVYYCAAEPYSWDTWVDYDYWGQGTQVTVSS | low polyreactivity |
| QVQLVESGGGLVQAGGSLRLTCAASGIIFQNYAMGWYRQAPGKERELVAGITGRGGITYYTDSVKGRFTISRDNAKNTVYVQMNSLKPEDTAVSSCAARRYRFAGDYRMYYWGQGTQVTVSS | high polyreactivity |

| Sequence | polyreactivity (PSR sort gate) |
| --- | --- |
| QVQLVESGGGLVQAGGSLRLTCAASGLIFGSNAMRWYRKAPGKERELVAGISGSGEHYVLRRSVKGRFTISRDNAKNTVYVQMNSLKPEDTAVYYCATYSQSSKGPAGYDYWGQGTHVTVSS | high polyreactivity |
| QVQLVESGGGLVQAGGSLRLTCAASGLIFPFYAMGWYRQATGKERELVAAISSRGGSTYYADSVKGRFTISRDNAKNTVYLQMSSLKPEDTAVYYCAADYGEEYEYSGQGTQVTVSS | high polyreactivity |
| QVQLVESGGGLVQAGGSLRLTCAASGNIFFVYDMGWYRQAPGKERELVAAISWSGGSTYADSVKGRFTISRDNAKNTVYLQMNSVKPEDTAVDYCAADVAYVEYDYWGQGTQVTVSS | low polyreactivity |
| QVQLVESGGGLVQAGGSLRLTCAASGNIFKVYAMGWSRQAPGKERELVAAITSGGGTKYADSVKGRFTISRDNAKNTVYLQMNSLKPEDTAVYYCAARFKYDVAKRYGYWGQGTQVTVSS | high polyreactivity |
| QVQLVESGGGLVQAGGSLRLTCAASGNIFRAYAMGWYRQAPGKERELVAAISWNAGTTYYADSVKGRFTISRDHAKNTVYLQMHSLKPEDTAVYYCAASKLLRRGLCKYYKATYSYDYWGQGTQVTVSS | high polyreactivity |
| QVQLVESGGGLVQAGGSLRLTCAASGNTFSLNPMGWYRQATGTETELVASSTWDGASTYADSVKGRFTISRDNAKNTVFLQMNSLKPEDTAVYFCAADTYRYGRFLKFDYWGQGTQVTVSS | low polyreactivity |
| QVQLVESGGGLVQAGGSLRLTCAASGNTFYGYSKGWYRQATGKERELVASISLSGDSTYYADSVKGRFTISRDNAKNTVYLQLNSLKPEDTAVYYCAGVYTYPLGYYHYTYDYWGQGTQVTVSS | low polyreactivity |
| QVQLVESGGGLVQAGGSLRLTCAASGRIFALYAMGWYRQAPGKERELVAAITSGSTYYADSVKGRFTISRDNAKNTVYLQMNSLKPEDTAVYYCAADANYYPTEYYPFDYWGQGTQVTVSS | low polyreactivity |
| QVQLVESGGGLVQAGGSLRLTCAASGRIFGAYTMGWYRQEPGKERELVAAISWSGGRTYYADSVKGRFTISRDNAKNTFYLQLNSLNAEDTAVYYCNVRRQSGRYRVYEYDYWGQGTQVTVSS | low polyreactivity |
| QVQLVESGGGLVQAGGSLRLTCAASGRIFNYYAMGWYRQAPGKEREFVAAITRSGGRTYYADSVKGRFTISRDNAKNTVYLQMNSLKPEDTAVYYCAAPYGTYAYDYWGQGTQVTVSS | high polyreactivity |
| QVQLVESGGGLVQAGGSLRLTCAASGRIFRPYTMGWYRQAPGKESELVARISISTGRTYYADSVKGRFTISRDNAKNTVYLQMNSLKPEDTAVYYCATRGYRWSVFDYWGQGTQVTVSS | high polyreactivity |
| QVQLVESGGGLVQAGGSLRLTCAASGRIFTGNSMGWYRQAPGQERELVAAITRRGGNTYYADSVKGRFTISRDNAKNTVYLQMNSLKPEDTAVYSCARDRPGDYAGYDYWGQGTQVTVSS | low polyreactivity |
| QVQLVESGGGLVQAGGSLRLTCAASGRIFTHNAMGWYRQAPGKVRELVAAITSGGRTTYADSVKGRFTISRDNAKNTVYLQMNSLKPEDSAVYDCNADTGLGSLDFDKRDYWGQGTQVTVSS | low polyreactivity |
| QVQLVESGGGLVQAGGSLRLTCAASGRIFWSYAMGWYRQAPGKERELVARITTGSSTNYADSVKGRFTISRDNAKNTVYLQMNSLKPEDTAVYYCAADVSNYYFAYYYWGQGTQVTVSS | low polyreactivity |
| QVQLVESGGGLVQAGGSLRLTCAASGRIFYRYAMGWYRQAPWKERELVAAIRYSGGRTYYADSVKGRFTISRDNAKNTVYLQMNSLQPEDTAVYYCAADGQWYYAPFRGGDYENDYWGQGTQVTVPS | low polyreactivity |
